Measurements published in the supplement of paper PMC12042874.
± gives the uncertainty stated by the source.

Experiment: amyloid nucleation score (Sup35N fusion, yeast selection) (log enrichment); library NNK2; higher = more nucleation; inactive = no reads after selection
How it was run: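 In psi-negative yeast, Sup35N fusions carrying peptides of 20 random codons were induced with 100 μM copper sulfate for 24 hours. The cells then grew 7 days at 30°C on medium lacking adenine and uracil, and plasmid inserts from input and output were Illumina-sequenced, excluding sequences with under 100 input reads. Nucleation score is the DiMSum log enrichment of output over input reads, centred on the mode score of non-aggregating sequences.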

Substance | amyloid nucleation score
FVCLVLRLCTMGSRASGLKK | 0.255 ± 1.1
FVCYADTNNGPQVVRTELSV | -0.299 ± 1.1
FVDDLARGLLVKRECSWQMQ | 0.523 ± 0.33
FVEGLYWVSVVILG | -1.58 ± 1
FVEMLYLGDVGDCHILQCVY | inactive
FVGTAQEEIHGFMNCIVELR | inactive
FVHIIESELYSEQTRESHLL | -0.586 ± 0.29
FVKYNCIFNASLTCHK | 7.686 ± 0.038
FVLTCRSSLYAVRDRLK | 1.35 ± 0.43
FVLTSSMVLFWDGRNDARHG | 4.31 ± 0.08
FVPSSLEGPLAGCYSAFIFE | inactive
FVRQDYKRVRDLFPTLNFDK | -0.949 ± 0.64
FVSIVPYRFL | -1.56 ± 0.48
FVSMNAGVYVGHRGHIMEFI | inactive
FVVLFLFYFEVFAVYKVSLG | inactive
FVVQPLSSFLWVSIA | 1.05 ± 0.3
FVWMCQLS | 6.297 ± 0.048
FVYGQWPNRSRAISSTSMFK | -0.723 ± 0.36
FVYNLTKTGLCYAQSVKYHN | -0.483 ± 0.39
FWCINVSTWYNNQELI | inactive
FWFMVCLIAG | -0.223 ± 0.48
FWIDYLVKFCCDLRMRMILK | 1.64 ± 0.2
FWRSMTYVRF | -0.526 ± 0.36
FWVKVNMSLGMSNLFVYACL | 6.298 ± 0.024
FWVRNVDTLWLSPRYVTWSG | -0.323 ± 0.33

Substance | amyloid nucleation score
FWYLLSLGQIIRSVNLGNWI | -0.78 ± 1.1
FYDVSCTRTDIMVESTSRLS | 5.24 ± 0.086
FYEHRIIFFVLGFFNATTGS | inactive
FYESELLSARQFSVYVSLMM | inactive
FYFDGQLV | -0.743 ± 0.76
FYHYDLLYRSGVLWRNHHGP | 2.77 ± 0.1
FYIGILGDLWWRRR | 1.15 ± 0.57
FYIMFLVRCYKDEPSTRANL | -0.796 ± 0.62
FYKREVIFVLRLFFTVKQGR | -1.73 ± 1.1
FYLFQWCK | -0.889 ± 1.1
FYLMPDCLWGGKSSWSFLHL | -0.873 ± 0.5
FYPSWNLYRVRGQPYLNRVR | -0.352 ± 1.1
FYTYCSLGWTEAAGAVFLES | -1.34 ± 0.75
FYVNSWPSPLGTYWRGYNGR | 0.106 ± 1
FYWNEICFNSSKE | inactive
FYYSDDEFKCTVEIPVIYLI | -1.07 ± 0.5
GADGISCFGISDKLGYDKFL | -0.1 ± 1
GAGLMALNLTHFVGGGLSTN | -0.179 ± 0.76
GALRPAFLSCKMVWR | 0.528 ± 0.49
GALYLRDVLVICIMCGKIRY | 2.73 ± 0.1
GARASQRCESVGLPLEYVSR | 0.974 ± 0.29
GARMHCGFCMGSWWYVFWVR | 1.32 ± 0.37
GAVRVYNYNYQEVKTLLLVE | -0.425 ± 0.32
GCCPAALFEFT | -1.07 ± 0.78
GCDLKLGVKCLKNERRVPEF | 0.382 ± 0.8

Substance | amyloid nucleation score
GCIGGHRFYSPRSNSVFEVG | 3.44 ± 0.081
GCNRQMSARK | 4.29 ± 0.044
GCQGVEGSESEQIDQIENWA | 0.978 ± 0.74
GCVNYNGRCEVDGRAD | -0.227 ± 0.23
GCYHVMVRNNKTGVLVMRSA | 0.545 ± 0.57
GDFDKDV | -0.188 ± 0.5
GDGRVYMVIGSGRGRV | 0.506 ± 0.41
GDGSRS | 0.813 ± 0.23
GDIRLLSRNVLGYIGALLDL | 0.179 ± 0.39
GDLRYQSPSLCFCFMSFGDQ | 5.971 ± 0.024
GDSNG | -0.532 ± 0.29
GDTYMGVYANLVMLALYGPG | 5.2 ± 0.088
GDYGPSDIMKKQFLFVSLVY | -0.744 ± 1.1
GEDHYIPQLFDGSVIILART | 0.117 ± 0.79
GEFLYNT | -0.237 ± 1
GELGQCVIKSVMSMLHKRAN | -0.347 ± 0.79
GESTWATVLACPSERRSCSR | 0.559 ± 0.33
GFIYLILTL | 1.28 ± 0.13
GFKAMRCLWSGVARSIVRDS | -0.242 ± 0.49
GFKYVRSRNSGALYKYSS | -0.962 ± 0.54
GFPRMTIHVKFHGQFSCFII | 0.615 ± 0.5
GFSEL | 0.306 ± 0.65
GFTRKASGADTRGRRTAVSS | 1.61 ± 0.37
GFVYQVIITIRHVCSLKRNR | 0.76 ± 0.16
GGFSLMIFVCAGSHLG | 5.26 ± 0.07

Substance | amyloid nucleation score
GGGSG | 0.123 ± 1
GGIAACPGLEINWKFDLVQW | 0.914 ± 0.32
GGILH | -0.254 ± 1
GGLELLLGKMNVNVAMLKSF | 1.09 ± 0.17
GGLFRFYS | inactive
GGLVVECRVGW | 3.42 ± 0.13
GGNSQMFRLSLGDTKCSGSY | -1.06 ± 1.1
GGNVLRE | -0.527 ± 0.35
GGREARMGRKKGERVYRVRF | 0.657 ± 0.56
GGSVMQILGWFLQAV | 0.683 ± 0.42
GGVAETGERFWHSRLHG | 0.679 ± 0.81
GHIFSRHVKGQLHGWEEDGP | 0.058 ± 1
GHLYSISCVFNI | 8.633 ± 0.044
GHMVYRTNVGRSV | 0.187 ± 0.74
GIFSCRLCSMLIELLMLRIM | -0.505 ± 1.1
GIGFKWGTILLKSLGNIYSQ | -0.263 ± 0.76
GIGYRNVISSIMGFRFTGIR | 0.109 ± 0.53
GIHRSMTFLTNQNRLIWSHG | 1.17 ± 0.4
GIIGYDVKNKHHLTVGLRFI | -0.285 ± 0.24
GILNRTRPFR | -0.595 ± 0.28
GIPMSSPNGLDTYSTPMH | 2.63 ± 0.074
GIQGLRVWFAYMFPSVVLLC | -0.987 ± 0.78
GISVICLYGVQYSDVGGVNL | 5.098 ± 0.043
GIVYVALSHYLAVNTKVFMP | 0.477 ± 0.66
GKCYFA | -1.87 ± 0.62

Substance | amyloid nucleation score
GKDGRVFGSEAYWMEGKRKW | 0.235 ± 0.8
GKGRMYES | 0.738 ± 0.24
GKINDSGTSYSEKRSGPCRL | -0.874 ± 0.25
GKSEVGLGVGEHMQSEHGGS | -0.055 ± 0.49
GKYSLTTCAR | 0.449 ± 0.8
GLGAKYWIYVVGFHCVHN | 0.289 ± 0.39
GLGLICLQMGGFCMWRFRRM | 0.197 ± 0.24
GLGSRWRCA | 2.01 ± 0.24
GLGYSLICNLTSICGKNNV | -0.147 ± 1.1
GLHSGNFTACICM | 8.731 ± 0.055
GLICRV | 0.518 ± 0.46
GLIGCAMSVVPHEELCVRTC | 1.07 ± 0.29
GLKDAIMYSVVTLIRYRQDD | -0.809 ± 0.56
GLNVFCEKYISFKVMGIVER | 5.24 ± 0.069
GLQRKGCP | -0.356 ± 1.1
GLRHGLCRSLLY | -0.642 ± 1.1
GLRNDGAEVINSQPFLAHMC | 0.497 ± 0.5
GLRRVKFYIKVIFAKSSLVI | -1.84 ± 0.49
GLSAHYA | 0.113 ± 1.1
GLTLMSR | 1.06 ± 0.12
GLTSFMLDVLRGETAHRGEG | 0.972 ± 0.52
GLTYKSDWSSFRSVYL | -0.771 ± 0.55
GLYEYPHGKTIMVDWMAGRL | 1.17 ± 0.28
GMAFAKA | 0.077 ± 0.63
GMFLWLFLVPRYHPTSTELG | 0.219 ± 1

Substance | amyloid nucleation score
GMGQTRKCHAGGNWHVYSCR | 0.738 ± 0.47
GMLRGSK | -0.359 ± 0.39
GMNAAGEVWVRGWTSGCMVY | 0.225 ± 0.5
GMVCVP | 0.876 ± 0.25
GMWFPLWFVDSSNSMSLLCV | -1.59 ± 0.76
GMWRIPYGWGPCYHSCVNQG | 4.958 ± 0.047
GMYGLCF | -0.524 ± 0.64
GNFVHTYNIK | 0.526 ± 0.66
GNFVRLLV | -0.031 ± 0.37
GNGMNWPC | 2.16 ± 0.13
GNMYLSEVNVTC | -0.78 ± 1.1
GNNGRFSWVY | 0.556 ± 0.37
GNNIVDPMLYLEGFKFSPIP | 0.082 ± 0.65
GNRYSLCEAYATYLFSLDWY | inactive
GNTHHRDGILESQPFFVTEA | 0.465 ± 0.29
GNVECS | -0.463 ± 0.45
GNVGL | 1.86 ± 0.078
GNVSYHSCVW | 0.449 ± 0.36
GNVYHLPDCLNLTWVLKIKN | -0.944 ± 0.39
GPCDQSWAT | 1.06 ± 0.19
GPKPGDVSYVYKSCRTHNSP | 0.53 ± 0.29
GPLSNLYTKYDANENDGFIL | -0.321 ± 0.41
GQSCHYCRMTLNIDFTDWVL | -0.228 ± 0.39
GQVLLFCMRTTYTMDEEFNS | 0.082 ± 1
GRCSSSLRICRSNWGAY | 0.45 ± 0.22

Substance | amyloid nucleation score
GRGAAILYMECYAVAEVCTF | 0.108 ± 0.26
GRGYAAVLNWRLFDKDRGRI | 0.035 ± 0.28
GRKCVTYSCPF | 0.185 ± 0.39
GRKTDFHFDVRFAWGDNGFS | inactive
GRLLQGWLIAEHVITVHFPM | inactive
GRNLMLSGVCGYKDVFLQAR | 0.359 ± 0.34
GRSFILTRLRFIFPVYTVC | inactive
GRSGRNNVKAW | inactive
GRTYGFSSRVVMRRGSCDFG | 0.913 ± 0.52
GRWKDRFCTVGMLYSRG | -0.316 ± 0.45
GSAMF | inactive
GSCRDLDLLLERHWRVVSNL | 0.903 ± 0.57
GSFSEYVLWT | 0.863 ± 0.41
GSGFLFFSVF | 0.353 ± 0.25
GSKDFLV | -0.047 ± 1.1
GSLNTLSIFDDE | -0.684 ± 0.64
GSNETPHLDALSPSALRMGH | 0.103 ± 0.63
GSNHRSVVFIFLMLMGFMES | -0.205 ± 0.76
GSNTSDHDNLD | -0.238 ± 0.5
GSPGIETGIAAEEWNGGW | 0.865 ± 0.5
GSPSRRGTVYRVWRVRWCNG | 0.307 ± 0.64
GSQVCILLAKGLWMVVFRIE | -0.795 ± 0.55
GSSNASVATGFVHIKEVKGG | 0.461 ± 0.8
